Measured values published in article PMC4390882 (Life, 2015).
Residue numbers refer to the chain shown, from its start. Names and notes keep the numbering of the source. Each block holds one molecule with its values, some of them ahead of it.

Assays:
[1] = biological target: T1, MtACK (Methanosarcina thermophila acetate kinase) (Methanosarcina thermophila, UniProt P38502, N211S); experiment: hydroxamate assay, A540; type: biochemical; settings: saturating acetate when possible (max 1 M), MgCl2, 50 mM Tris pH 7.5, 300 mM hydroxylamine, 37 °C
T1 construct: gene ackA; full-length, N-terminal His6 tag (pET15b, pETack), expressed in E. coli BL21(DE3), HisTrap purified; tag removal not mentioned

[2] = biological target: T2, MtACK (Methanosarcina thermophila acetate kinase) (Methanosarcina thermophila, UniProt P38502, G331A); experiment: hydroxamate assay, A540; type: biochemical; settings: saturating acetate when possible (max 1 M), MgCl2, 50 mM Tris pH 7.5, 300 mM hydroxylamine, 37 °C
T2 construct: gene ackA; full-length, N-terminal His6 tag (pET15b, pETack), expressed in E. coli BL21(DE3), HisTrap purified; tag removal not mentioned

[3] = biological target: T3, MtACK (Methanosarcina thermophila acetate kinase) (Methanosarcina thermophila, UniProt P38502, G239A); experiment: hydroxamate assay, A540; type: biochemical; settings: saturating acetate when possible (max 1 M), MgCl2, 50 mM Tris pH 7.5, 300 mM hydroxylamine, 37 °C
T3 construct: gene ackA; full-length, N-terminal His6 tag (pET15b, pETack), expressed in E. coli BL21(DE3), HisTrap purified; tag removal not mentioned

[4] = biological target: T4, MtACK (Methanosarcina thermophila acetate kinase) (Methanosarcina thermophila, UniProt P38502, G239S); experiment: hydroxamate assay, A540; type: biochemical; settings: saturating acetate when possible (max 1 M), MgCl2, 50 mM Tris pH 7.5, 300 mM hydroxylamine, 37 °C
T4 construct: gene ackA; full-length, N-terminal His6 tag (pET15b, pETack), expressed in E. coli BL21(DE3), HisTrap purified; tag removal not mentioned

[5] = biological target: T5, MtACK (Methanosarcina thermophila acetate kinase) (Methanosarcina thermophila, UniProt P38502); experiment: hydroxamate assay, A540; type: biochemical; settings: saturating acetate when possible (max 1 M), MgCl2, 50 mM Tris pH 7.5, 300 mM hydroxylamine, 37 °C
T5 construct: gene ackA; full-length, N-terminal His6 tag (pET15b, pETack), expressed in E. coli BL21(DE3), HisTrap purified; tag removal not mentioned

[6] = biological target: T6, MtACK (Methanosarcina thermophila acetate kinase) (Methanosarcina thermophila, UniProt P38502, N211A); experiment: hydroxamate assay, A540; type: biochemical; settings: saturating acetate when possible (max 1 M), MgCl2, 50 mM Tris pH 7.5, 300 mM hydroxylamine, 37 °C
T6 construct: gene ackA; full-length, N-terminal His6 tag (pET15b, pETack), expressed in E. coli BL21(DE3), HisTrap purified; tag removal not mentioned

[7] = biological target: T7, MtACK (Methanosarcina thermophila acetate kinase) (Methanosarcina thermophila, UniProt P38502, N211T); experiment: hydroxamate assay, A540; type: biochemical; settings: saturating acetate when possible (max 1 M), MgCl2, 50 mM Tris pH 7.5, 300 mM hydroxylamine, 37 °C
T7 construct: gene ackA; full-length, N-terminal His6 tag (pET15b, pETack), expressed in E. coli BL21(DE3), HisTrap purified; tag removal not mentioned

[8] = biological target: T8, MtACK (Methanosarcina thermophila acetate kinase) (Methanosarcina thermophila, UniProt P38502, G331Q); experiment: hydroxamate assay, A540; type: biochemical; settings: acetate not saturating (max 1 M), MgCl2, 50 mM Tris pH 7.5, 300 mM hydroxylamine, 37 °C
T8 construct: gene ackA; full-length, N-terminal His6 tag (pET15b, pETack), expressed in E. coli BL21(DE3), HisTrap purified; tag removal not mentioned

hydroxamate assay, A540 [9] = substrate: Nc1nc2c(ncn2[C@@H]2O[C@H](COP(=O)(O)OP(=O)(O)OP(=O)(O)O)[C@@H](O)[C@H]2O)c(=O)[nH]1; experiment: hydroxamate assay, A540; type: biochemical, Methanosarcina thermophila; settings: saturating acetate when possible (max 1 M), MgCl2, 50 mM Tris pH 7.5, 300 mM hydroxylamine, 37 °C
hydroxamate assay, A540 [10] = substrate: Nc1ccn([C@@H]2O[C@H](COP(=O)(O)OP(=O)(O)OP(=O)(O)O)[C@@H](O)[C@H]2O)c(=O)n1; experiment: hydroxamate assay, A540; type: biochemical, Methanosarcina thermophila; settings: saturating acetate when possible (max 1 M), MgCl2, 50 mM Tris pH 7.5, 300 mM hydroxylamine, 37 °C
purified protein = substrate: CC(=O)O; experiment: purified protein; settings: ATP constant at optimal concentration, MgCl2, 50 mM Tris pH 7.5, 300 mM hydroxylamine, 37 °C
hydroxamate assay, A540 [11] = substrate: O=c1ccn([C@@H]2O[C@H](COP(=O)(O)OP(=O)(O)OP(=O)(O)O)[C@@H](O)[C@H]2O)c(=O)[nH]1; experiment: hydroxamate assay, A540; type: biochemical, Methanosarcina thermophila; settings: saturating acetate when possible (max 1 M), MgCl2, 50 mM Tris pH 7.5, 300 mM hydroxylamine, 37 °C
hydroxamate assay, A540 [12] = substrate: Cc1cn([C@H]2C[C@H](O)[C@@H](COP(=O)(O)OP(=O)(O)OP(=O)(O)O)O2)c(=O)[nH]c1=O; experiment: hydroxamate assay, A540; type: biochemical, Methanosarcina thermophila; settings: saturating acetate when possible (max 1 M), MgCl2, 50 mM Tris pH 7.5, 300 mM hydroxylamine, 37 °C
hydroxamate assay, A540 [13] = substrate: O=P(O)(O)OP(=O)(O)OP(=O)(O)OC[C@H]1O[C@@H](n2cnc3c(O)ncnc32)[C@H](O)[C@@H]1O; experiment: hydroxamate assay, A540; type: biochemical, Methanosarcina thermophila; settings: saturating acetate when possible (max 1 M), MgCl2, 50 mM Tris pH 7.5, 300 mM hydroxylamine, 37 °C

T7 sequence (P38502 whole entry N211T): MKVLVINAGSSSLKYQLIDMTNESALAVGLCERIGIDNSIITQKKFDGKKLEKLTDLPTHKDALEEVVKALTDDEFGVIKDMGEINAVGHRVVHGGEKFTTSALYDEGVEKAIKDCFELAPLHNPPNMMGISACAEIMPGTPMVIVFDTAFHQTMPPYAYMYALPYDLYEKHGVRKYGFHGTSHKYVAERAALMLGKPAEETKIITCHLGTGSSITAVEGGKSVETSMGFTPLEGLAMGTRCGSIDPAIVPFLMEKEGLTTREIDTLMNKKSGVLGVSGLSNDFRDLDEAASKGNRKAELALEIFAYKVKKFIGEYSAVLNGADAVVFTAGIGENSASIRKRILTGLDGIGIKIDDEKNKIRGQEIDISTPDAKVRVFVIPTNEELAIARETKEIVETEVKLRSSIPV
T4 sequence (P38502 whole entry G239S): as the sequence (P38502 whole entry N211T) above, with T211N, G239S counted along it
T1 sequence (P38502 whole entry N211S): as the sequence (P38502 whole entry N211T) above, with T211S counted along it
T5 sequence (P38502 whole entry): as the sequence (P38502 whole entry N211T) above, with T211N counted along it
T8 sequence (P38502 whole entry G331Q): as the sequence (P38502 whole entry N211T) above, with T211N, G331Q counted along it
T3 sequence (P38502 whole entry G239A): as the sequence (P38502 whole entry N211T) above, with T211N, G239A counted along it
T6 sequence (P38502 whole entry N211A): as the sequence (P38502 whole entry N211T) above, with T211A counted along it

Km [1]: 6.8 ± 0.6 mM
Km [2]: 10.2 ± 0.4 mM
Km [3]: 1.7 ± 0.1 mM
Km [4]: 1.8 ± 0.1 mM
Km [5]: 4 ± 0.3 mM
Km [6]: 5.9 ± 0.5 mM
Km [7]: 7.1 ± 0.3 mM
Km [8]: 18.4 ± 0.6 mM
Molecule: Nc1ncnc2c1ncn2[C@@H]1O[C@H](COP(=O)(O)OP(=O)(O)OP(=O)(O)O)[C@@H](O)[C@H]1O [ATP]

B1: MtACK (Methanosarcina thermophila acetate kinase) (Methanosarcina thermophila; G331A) (protein)
chain: MKVLVINAGSSSLKYQLIDMTNESALAVGLCERIGIDNSIITQKKFDGKKLEKLTDLPTHKDALEEVVKALTDDEFGVIKDMGEINAVGHRVVHGGEKFTTSALYDEGVEKAIKDCFELAPLHNPPNMMGISACAEIMPGTPMVIVFDTAFHQTMPPYAYMYALPYDLYEKHGVRKYGFHGTSHKYVAERAALMLGKPAEETKIITCHLGNGSSITAVEGGKSVETSMGFTPLEGLAMGTRCGSIDPAIVPFLMEKEGLTTREIDTLMNKKSGVLGVSGLSNDFRDLDEAASKGNRKAELALEIFAYKVKKFIGEYSAVLNGADAVVFTAAIGENSASIRKRILTGLDGIGIKIDDEKNKIRGQEIDISTPDAKVRVFVIPTNEELAIARETKEIVETEVKLRSSIPV
notes: full-length, N-terminal His6 tag (pET15b, pETack), expressed in E. coli BL21(DE3), HisTrap purified; tag removal not mentioned
Km (hydroxamate assay, A540 [9]): 5.3 ± 0.2 mM
kcat (hydroxamate assay, A540 [9]): 67 ± 1.0 s⁻¹
kcat/Km (hydroxamate assay, A540 [9]): 12600 ± 400 M⁻¹ s⁻¹
Km (hydroxamate assay, A540 [10]): 15.7 ± 1.6 mM
kcat (hydroxamate assay, A540 [10]): 17 ± 0.8 s⁻¹
kcat/Km (hydroxamate assay, A540 [10]): 1100 ± 70 M⁻¹ s⁻¹

B2: MtACK (Methanosarcina thermophila acetate kinase) (Methanosarcina thermophila) (protein)
chain: B1 chain with A331G
notes: as for B1
Km (purified protein): 14.3 ± 0.5 mM
Km (hydroxamate assay, A540 [11]): 2.7 ± 0.3 mM
kcat (hydroxamate assay, A540 [11]): 415 ± 19 s⁻¹
kcat/Km (hydroxamate assay, A540 [11]): 152000 ± 7000 M⁻¹ s⁻¹
Km (hydroxamate assay, A540 [12]): 2.7 ± 0.1 mM
kcat (hydroxamate assay, A540 [12]): 540 ± 9 s⁻¹
kcat/Km (hydroxamate assay, A540 [12]): 202000 ± 2000 M⁻¹ s⁻¹
Km (hydroxamate assay, A540 [13]): 4.7 ± 0.2 mM
kcat (hydroxamate assay, A540 [13]): 742 ± 10 s⁻¹
kcat/Km (hydroxamate assay, A540 [13]): 158000 ± 5000 M⁻¹ s⁻¹
Km (hydroxamate assay, A540 [9]): 7.2 ± 0.9 mM
kcat (hydroxamate assay, A540 [9]): 571 ± 22 s⁻¹
kcat/Km (hydroxamate assay, A540 [9]): 80000 ± 7000 M⁻¹ s⁻¹
Km (hydroxamate assay, A540 [10]): 3.2 ± 0.4 mM
kcat (hydroxamate assay, A540 [10]): 460 ± 28 s⁻¹
kcat/Km (hydroxamate assay, A540 [10]): 148000 ± 13000 M⁻¹ s⁻¹
